# According to patent US20250145722A1 (TRUEBINDING, published 2025):
# B1: 6H6.2D6 (antibody, human IgG4 S228P, kappa, V domains shown)
# VH: QIQLVQSGPELKKPGETVKISCKASGYTFTTYGMSWVKQAPGKGLKWMAWINTYSGVPTYADDFKGRFAFSLETSASTAYLQINNLTNEDTATYFCARGPYAMDYWGQGTSVTVSS
# VL: DIQMTQTTSSLSASLGDRVTISCSASQGISNYLNWYQQKPDGTVKLLIYYTSSLHSGVPSRFSGSGSGTDYSLTISNLEPEDIATYYCQQYSELPYTFGSGTKLEIKR
# Experiments:
# [1] = target: T1, human Galectin-3 (Gal3), full-length recombinant (human, UniProt P17931 2-250); experiment: Gator biosensor kinetics, antibody loaded on probe, rhGal3-His in solution, 1:1 fit
# T1 construct: treated here as one molecule; also called hGAL3; hGal3
# T1 sequence (P17931 2-250 limits assumed): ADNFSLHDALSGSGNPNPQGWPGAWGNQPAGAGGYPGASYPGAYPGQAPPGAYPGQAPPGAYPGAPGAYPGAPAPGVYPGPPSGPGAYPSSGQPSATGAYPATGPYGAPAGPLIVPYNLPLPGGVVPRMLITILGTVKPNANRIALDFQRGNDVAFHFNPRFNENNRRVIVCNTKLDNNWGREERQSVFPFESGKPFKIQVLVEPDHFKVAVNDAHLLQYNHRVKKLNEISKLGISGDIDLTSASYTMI
# Text: The binding affinities were characterized by fitting the kinetic sensorgrams to a monovalent binding model (1:1 binding).
# [2] = target: T1, human Galectin-3 (Gal3), full-length …; experiment: blocking ELISA, Gal3 coated, PDGFR alpha-Fc, antibody 20 µg/ml
# Experimental: (§1) After incubating the plate at 4° C. overnight, the plate was washed three times with PBST. The plate was then blocked for an hour with 2% BSA in PBST at room temperature with gentle rocking. […] The respective plates were incubated for an hour at room temperature with gentle rocking. Thereafter, the plate was washed three times with PBST. Peroxidase AffiniPure F(ab′)₂ Fragment Goat Anti-Human IgG (H+L) polyclonal antibody was then added to the wells at 1:4000 dilution in 2% BSA in PBST. The plate was incubated at room temperature for an hour with gentle rocking and then washed three times with PBST. TMB substrate was then added to each well. The reaction was stopped with 1M HCl and read using a plate reader (Molecular Devices, SpectraMax M4) at absorbance of 450 nm.
# [3] = target: T1, human Galectin-3 (Gal3), full-length …; experiment: blocking ELISA, Gal3 coated, VEGFR3-Fc, antibody 20 µg/ml
# Experimental: as §1
# [4] = target: T1, human Galectin-3 (Gal3), full-length …; experiment: Gator biosensor kinetics (legend: SPR), 6H6 mIgG2a loaded on probes, rhGalectin-3 as analyte, 1:1 fit
# [5] = target: T1, human Galectin-3 (Gal3), full-length …; experiment: blocking ELISA, Gal3 coated, PDGFR beta-Fc, antibody 20 µg/ml
# Experimental: as §1
# [6] = target: T1, human Galectin-3 (Gal3), full-length …; experiment: blocking ELISA, Gal3 coated, EGFR-Fc, antibody 20 µg/ml
# Experimental: as §1
binder,measurement,setting,value
B1,Kd,[1],3.39 nM
same,% blocking of Gal3-PDGFR alpha binding,[2],> 70%
same,% blocking of Gal3-VEGFR3 binding,[3],> 70%
same,koff,[4],0.000299 s⁻¹
same,kon,[4],88000 M⁻¹ s⁻¹
same,% blocking of Gal3-PDGFR beta binding,[5],> 70%
same,% blocking of Gal3-EGFR binding,[6],> 70%
